Source: patent publication US20190257845A1, “METHOD FOR CALORIMETRIC DETERMINATION OF THE LIPOPROTEIN LIPASE ACTIVITY IN HUMAN PLASMA ENVIRONMENT” (Tallinn University of Technology, priority 2016, published 2019)

Experiments:
lipoprotein lipase (LPL) [1] = molecular target: T1, lipoprotein lipase (LPL) (Bos taurus, UniProt P11151); test: ITC measurement of LPL activity in human plasma with added regulators or inhibitors; format: biochemical, bovine; conditions: for effect on activity of LPL in plasma: LPL 0.6 nM
T1 construct: Bovine LPL was purified from milk; from tissue; host or cells: bovine milk
T1 sequence (P11151 29-478): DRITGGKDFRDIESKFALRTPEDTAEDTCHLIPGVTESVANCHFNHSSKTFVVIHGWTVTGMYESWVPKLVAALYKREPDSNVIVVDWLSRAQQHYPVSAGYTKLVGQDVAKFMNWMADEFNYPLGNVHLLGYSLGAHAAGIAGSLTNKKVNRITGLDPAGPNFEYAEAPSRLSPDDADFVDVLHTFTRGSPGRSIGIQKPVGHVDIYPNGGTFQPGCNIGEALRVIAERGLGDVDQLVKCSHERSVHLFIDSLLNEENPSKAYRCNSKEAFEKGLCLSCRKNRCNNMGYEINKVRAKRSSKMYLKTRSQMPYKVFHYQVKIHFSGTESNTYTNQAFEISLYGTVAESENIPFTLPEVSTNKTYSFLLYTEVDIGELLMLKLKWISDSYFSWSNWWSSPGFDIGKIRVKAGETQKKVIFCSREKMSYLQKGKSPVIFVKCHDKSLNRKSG
Description: Preparing the reagents—Bovine LPL was purified from milk (Bengtsson-Olivecrona & Olivecrona 1991) and dialysed to buffer containing 10 mM TRIS, pH 8.5 (4° C.), 4 mM sodium deoxycholate. Stock solutions of 0.5 mg/ml LPL were stored at −80° C. The N-terminal coiled-coil domain of human angiopoietin-like protein 4 (ANGPTL4), residues 26-184, was expressed in E. coli and purified as described (Robal et al. 2012). Full-length human angiopoietin-like protein 3 (ANGPTL3) expressed in Sf 21 cells was obtained from R&D Systems (USA). Apolipoprotein C-III0 was from human blood plasma (Bengtsson-Olivecrona & Sletten 1990). Apolipoprotein C-II and apolipoprotein A-V were expressed in E. coli and purified as described (Shen et al. 2010; Beckstead et al. 2003). A synthetic peptide corresponding to the N-terminal domain of human GPIHBP1, residues 23-51, was bought from Caslo (Denmark). The sequence of the peptide was as follows: […]. Antibodies (goat IgG) to human hepatic lipase were raised in a goat against hepatic lipase isolated from human post-heparin plasma (Olivecrona & Olivecrona 2000). The IgG fraction was isolated using Protein-A columns and the final preparation contained 5 mg protein per milliliter in 20 mM Na-phosphate buffer and 0.15 M NaCl (pH 7.4).
Sample preparation—Before experiments the human plasma samples were diluted 1.2 times with TRIS buffer pH 7.4 or with the additions specified for each experiment. The final concentration of TRIS was 20 mM in all cases. Stock solutions of LPL were diluted in cold 10 mM TRIS, pH 8.5, containing 4 mM sodium deoxycholate. In this buffer, LPL is stable for a long period of time, even at low protein concentrations The final concentration of deoxycholate during incubations with plasma or lipoproteins was 10 to 100 times lower than the initial. […] In experiments with post-heparin plasma, antibodies to hepatic lipase (in PBS) or the same volume of PBS only were added (180 μl of IgG or PBS was mixed with 360 μl of post-heparin plasma) and the mixture was then incubated for 2 hours on ice prior to experiments (Olivecrona & Olivecrona 2000). All samples were degassed under vacuum for 15 minutes before the ITC experiments.
(§1) ITC measurements—Most of the experiments were performed on an Nano ITC model 5300 (TA Instruments, USA) at 25° C. A MicroCal Auto-iTC200 (GE Healthcare) instrument was used for experiments regarding relationship between total heat production and released fatty acids. In a typical experiment performed by Nano ITC, the lipase substrate (plasma, Intralipid 20% or VLDL) with or without added ligands was placed into the calorimetric cell (1035 μl) and the syringe (250 μl) was filled with LPL-containing solution (bovine LPL or post-heparin plasma) (see FIG. 1A). MilliQ water was loaded into the reference cell (1032 μl). The stirring speed in the sample cell was 400 rpm. The baseline was left to stabilize for at least 1 hour before injections of LPL or post-heparin plasma. In all experiments, the first injection was 2 μl and after that single or sequential injections of 10 to 25 μl were made. The interval between the injections was from 200 s to 500 s. In experiments performed by MicroCal Auto-iTC200, 400 μl of lipase substrate (plasma), 400 μl of equilibration buffer (20 mM TRIS, pH 7,4) and a sufficient volume of LPL (0.8 μM) were placed on the loading plate. The calorimetric cell (200 μl) was rinsed with equilibration buffer and loaded with 200 μl of substrate in an automated fashion. The syringe was loaded with 40 μl of LPL-containing solution. The stirring speed in the sample cell was 600 rpm and the baseline was stabilized automatically. The first injection of LPL was 0.2 μl and the second injection was 2 μl. The experiment time was 1 hour to allow full hydrolysis of plasma triglycerides.After each experiment the Nano ITC sample cell was washed with the following solutions, one after the other: MilliQ water, 2% SDS, 40 mM NaOH and finally 95% ethanol. […]

lipoprotein lipase (LPL) [2] = molecular target: T1, lipoprotein lipase (LPL); test: ITC measurement of Intralipid hydrolysis by LPL, activation by apoC-II; format: biochemical, bovine; conditions: Intralipid substrate
Description: The substrate mixture composition was as follows: 1 mg triglyceride/ml Intralipid, 10 mg/ml BSA, 10 IU/ml heparin, 0.15 M NaCl, 10 mM TRIS pH 7.4. […] Final concentration of LPL was 1.2 nM in all experiments.
Heat rate points at 200 s were obtained from FIG. 5a. The data were fitted using the following equation (Quinn et al. 1983): […]
as §1, with “[…] Raw ITC data were analysed using” for “The experiment time was 1 hour to allow full hydrolysis of plasma triglycerides.After each experiment”, “NanoAnalyze (TA Instruments) Or MicroCal Origin (GE Healthcare).” for “Nano ITC sample cell was washed with the following solutions, one after the other: MilliQ water, 2% SDS, 40 mM NaOH and finally 95% ethanol.”

## CCCCCCCCCCC[C@@H](C[C@@H]1OC(=O)[C@H]1CCCCCC)OC(=O)[C@H](CC(C)C)NC=O [THL, tetrahydrolipstatin, reference compound]
Lipoprotein lipase (LPL) [1]; 10 μM THL, human plasma, LPL 1 nM, unchanged afterwards
  immediate drop of the activity of LPL: 80%
Lipoprotein lipase (LPL) [1]; human plasma, LPL 1 nM
  THL concentration at which inhibition of LPL was detectable: 90 nM

## QQEEEEEDEDHGPDDYDEEDEDEVEEEET [N-terminal peptide of GPIHBP1, synthetic peptide corresponding to the N-terminal domain of human GPIHBP1, residues 23-51, reference compound]
Lipoprotein lipase (LPL) [1]; 100 nM ANGPTL4, LPL 0.6 nM, TG 1 mM
  protection of LPL from inactivation by ANGPTL4: could not protect LPL from inactivation

B1: apoC-II: Apolipoprotein C-II expressed in E. coli; activator of LPL (protein, UniProt P02655 29-101, looked up)
Apolipoprotein C-II: DEMPSPTFLTQVKESLSSYWESAKTAAQNLYEKTYLPAVDEKLRDLYSKSTAAMSTYTGIFTDQVLSVLKGEE
Lipoprotein lipase (LPL) [2]; 1.2 nM LPL, apoC-II 0 to 1000 nM, heat rate at 200 s, model of Quinn et al. 1983
  estimated maximal activation factor of LPL: 4.2±1.2
Lipoprotein lipase (LPL) [2]; 1.2 nM LPL, heat rate at 200 s, model of Quinn et al. 1983, read-out: Kd value (affinity of apoC-II for LPL)
  Kd: 22 ± 8 nM
Lipoprotein lipase (LPL) [2]; LPL not stable without apoC-II or below 100 nM
  effect on stability of LPL: stabilized LPL

B2: apoA-V: apolipoprotein A-V expressed in E. coli (protein, UniProt Q6Q788 24-366, looked up)
Apolipoprotein A-V: RKGFWDYFSQTSGDKGRVEQIHQQKMAREPATLKDSLEQDLNNMNKFLEKLRPLSGSEAPRLPQDPVGMRRQLQEELEEVKARLQPYMAEAHELVGWNLEGLRQQLKPYTMDLMEQVALRVQELQEQLRVVGEDTKAQLLGGVDEAWALLQGLQSRVVHHTGRFKELFHPYAESLVSGIGRHVQELHRSVAPHAPASPARLSRCVQVLSRKLTLKAKALHARIQQNLDQLREELSRAFAGTGTEEGAGPDPQMLSEEVRQRLQAFRQDTYLQIAAFTRAIDQETEEVQQQLAPPPPGHSAFAPEFQQTDSGKVLSKLQARLDDLWEDITHSLHDQGHSHLGDP
Lipoprotein lipase (LPL) [1]; 10 nM apoA-V, TG 1 mM
  effect on activity of LPL in plasma: did not change the activity of LPL
Lipoprotein lipase (LPL) [1]; 100 nM apoA-V, TG 1 mM
  effect on activity of LPL in plasma: some inhibition was observed

B3: ANGPTL3: Full-length human angiopoietin-like protein 3 expressed in Sf 21 cells, from R&D Systems (protein, UniProt Q9Y5C1 1-460, looked up)
chain: MFTIKLLLFIVPLVISSRIDQDNSSFDSLSPEPKSRFAMLDDVKILANGLLQLGHGLKDFVHKTKGQINDIFQKLNIFDQSFYDLSLQTSEIKEEEKELRRTTYKLQVKNEEVKNMSLELNSKLESLLEEKILLQQKVKYLEEQLTNLIQNQPETPEHPEVTSLKTFVEKQDNSIKDLLQTVEDQYKQLNQQHSQIKEIENQLRRTSIQEPTEISLSSKPRAPRTTPFLQLNEIRNVKHDGIPAECTTIYNRGEHTSGMYAIRPSNSQVFHVYCDVISGSPWTLIQHRIDGSQNFNETWENYKYGFGRLDGEFWLGLEKIYSIVKQSNYVLRIELEDWKDNKHYIEYSFYLGNHETNYTLHLVAITGNVPNAIPENKDLVFSTWDHKAKGHFNCPEGYSGGWWWHDECGENNLNGKYNKPRAKSKPERRRGLSWKSQNGRLYSIKSTKMLIHPTDSESFE
modifications: full-length
notes: Full-length human angiopoietin-like protein 3 expressed in Sf 21 cells, from R&D Systems
Lipoprotein lipase (LPL) [1]; human plasma
  concentration at which effect on LPL in plasma was detectable: detectable already at nanomolar concentrations
